{
  "source": "paper PMC9486875",
  "target": "T1, GST-Mei2 RRM1-RRM2 (Schizosaccharomyces pombe, UniProt P08965 191-373)",
  "T1 sequence": "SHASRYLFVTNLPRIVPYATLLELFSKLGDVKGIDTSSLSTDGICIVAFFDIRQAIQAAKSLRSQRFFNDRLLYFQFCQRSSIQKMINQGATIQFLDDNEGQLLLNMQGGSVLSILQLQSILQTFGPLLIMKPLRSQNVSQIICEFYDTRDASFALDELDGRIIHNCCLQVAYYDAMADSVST",
  "assay": "EMSA",
  "data": [
    {"binder": "GUCAAUCUUCUGCCGUCUUG (ssRNA)", "note": "[meiRNA 20mer]", "values": [
      {"measurement": "binding result", "value": "no binding"}
    ]}
  ]
}
